According to US20050113284A1, “Drug for regenerating tissue and vessel and method therefor” (priority 2001, published 2005):

T1: MERMUC self-association (Homo sapiens, UniProt Q8N307)
T1 construct: human MERMUC (full-length; full)/β-galΔα; β-galΔω (E. coli β-galactosidase residues 1-789); β-galΔα (E. coli β-galactosidase lacking residues 12-42); expressed in transfected cells; host or cells: CHO cells (A5); CHO-K1 cells (A6); pcDNA3 vectors
T1 sequence (Q8N307 with tags, fused parts or gaps R136E/DEL182-352/L354P/T442I/D493H limits assumed): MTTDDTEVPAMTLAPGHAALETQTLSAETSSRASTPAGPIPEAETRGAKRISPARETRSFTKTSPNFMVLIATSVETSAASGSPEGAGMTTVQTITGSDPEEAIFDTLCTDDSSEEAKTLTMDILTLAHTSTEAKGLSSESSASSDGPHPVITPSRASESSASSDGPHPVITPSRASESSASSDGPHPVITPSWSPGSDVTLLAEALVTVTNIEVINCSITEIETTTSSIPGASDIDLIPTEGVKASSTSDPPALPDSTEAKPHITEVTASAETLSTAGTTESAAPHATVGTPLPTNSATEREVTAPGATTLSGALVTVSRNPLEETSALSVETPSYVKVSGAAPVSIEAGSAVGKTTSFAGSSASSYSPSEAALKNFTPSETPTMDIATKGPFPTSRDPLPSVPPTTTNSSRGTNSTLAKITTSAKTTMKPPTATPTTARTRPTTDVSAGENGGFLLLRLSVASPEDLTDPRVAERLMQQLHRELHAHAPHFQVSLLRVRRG

T2: MERMUC self-association (Homo sapiens, UniProt Q8N307, D493H/DEL182-352/L354P/R136E/T442I)
T2 construct: human MERMUC (full-length; full)/β-galΔα; β-galΔω (E. coli β-galactosidase residues 1-789); β-galΔα (E. coli β-galactosidase lacking residues 12-42); expressed in transfected cells; host or cells: CHO cells (A5); CHO-K1 cells (A6); pcDNA3 vectors
T2 sequence (Q8N307 with tags, fused parts or gaps R136E/DEL182-352/L354P/T442I/D493H limits assumed): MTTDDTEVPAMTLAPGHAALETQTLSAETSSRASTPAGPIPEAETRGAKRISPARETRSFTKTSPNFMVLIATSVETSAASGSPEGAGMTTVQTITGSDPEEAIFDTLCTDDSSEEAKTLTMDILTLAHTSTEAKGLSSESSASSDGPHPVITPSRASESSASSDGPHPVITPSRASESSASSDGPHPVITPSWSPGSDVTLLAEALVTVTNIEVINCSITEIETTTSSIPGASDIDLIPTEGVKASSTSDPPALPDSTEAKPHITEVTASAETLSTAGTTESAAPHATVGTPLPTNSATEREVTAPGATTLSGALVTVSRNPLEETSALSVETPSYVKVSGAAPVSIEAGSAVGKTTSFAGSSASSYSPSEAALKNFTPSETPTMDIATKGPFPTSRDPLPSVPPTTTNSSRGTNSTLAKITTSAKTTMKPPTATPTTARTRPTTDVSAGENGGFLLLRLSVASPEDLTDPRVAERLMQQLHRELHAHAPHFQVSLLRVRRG


Tests used:
[1] = molecular target: T3, HGF receptor c-Met β chain (Homo sapiens, UniProt P08581); test: Yeast two-hybrid binding of MERMUC bait proteins to c-Met prey (C-terminal 91 amino acids); conditions: prey clone No. 3-309 (C-terminal 91 amino acids of human c-Met)
T3 construct: expressed in transfected cells; host or cells: yeast AH109 strain (library prey plasmid, human kidney cDNA library, CLONTECH)
T3 sequence (P08581 1300-1390): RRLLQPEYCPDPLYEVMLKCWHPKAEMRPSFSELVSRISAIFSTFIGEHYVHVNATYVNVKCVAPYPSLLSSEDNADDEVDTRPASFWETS
Experimental: The present examination was performed using the previously reported yeast two-hybrid system (references are described above) according to conventional method and the experimental protocols provided with the reagents. […]
The binding ability of MERMUC bait protein derived from each of the bait vectors to the HGF receptor c-Met β chain was analyzed by the yeast two-hybrid system described above. […]
Each of the bait vectors was cointroduced into yeast AH109 strain with human HGF receptor c-Met prey vector (comprising DNA encoding the C-terminal 91 amino acids of the c-Met; Example 1). The binding ability of each of the bait proteins (randomly selected 10 amino acids of the human MERMUC C-terminal region) to the C-terminal region of human c-Met β chain was analyzed by the yeast two-hybrid system similar to the aforementioned Example.

MERMUC self-association [2] = molecular target: T1, MERMUC self-association; test: Suppression of MERMUC self-association by MERMUC cytoplasmic region peptides (β-gal activity, CHO-K1 cells); assay type: cell-based; conditions: compared among del-1 to del-4; FIG. 16
Text: (§1) To validate this prediction and at the same time synthesize a MERMUCMERMUC peptide that is able to suppress MERMUC self-association through the binding to the MERMUC self-association region, the following 4 types of peptides each corresponding to a part of MERMUC cytoplasmic region were synthesized by the method described later: • del-1: amino acid sequence from amino acids 244 to 345 of SEQ ID NO: 10; • del-2: amino acid sequence from amino acids 244 to 380 of SEQ ID NO: 10; • del-3: amino acid sequence from amino acids 244 to 415 of SEQ ID NO: 10; and • del-4: amino acid sequence from amino acids 244 to 450 of SEQ ID NO: 10.
(§2) Each of the cDNA obtained by PCR was digested with HindIII and XhoI and inserted into the HindIII/XhoI site of pcDNA3 vector to obtain an expression vector expressing each of the human MERMUC cytoplasmic region fragments (del-1 to del-4). […]
(§3) Intracellular β-Galactosidase activity of the recombinant cells was measured using Gal-Screen System (Applied Biosystems) according to the accompanying protocol 48 hr after plasmid transfection. […]

MERMUC self-association [3] = molecular target: T2, MERMUC self-association; test: as above; assay type: cell-based; conditions: various concentrations of del-4; FIG. 18
Text: as §1, §2, §3

[4] = test system: binding of MERMUC and HGF receptor c-Met; test: Suppression of MERMUC binding to HGF receptor c-Met by MERMUC cytoplasmic region peptides (β-gal activity, CHO-K1 cells); assay type: cell-based, human
MAP kinase (Erk) = test: Recovery of HGF-induced MAP kinase activation in MERMUC/293 cells (Western blotting); assay type: cell-based, human; conditions: MERMUC expressing MERMUC/293 cells transfected with del-4 expression vector vs mock
Experimental: The del-4 protein expression vector produced above was added to Tet-Off/MERMUC expressing recombinant cells (MERMUC/293 cells) (produced in Example 2) and cultured at 37° C. for 48 hr for transfection using GeneJammer Transfection Reagent (STRATAGENE) according to the accompanying protocol.
Cells were similarly transfected with pcDNA3 vector [mock] that lack the cDNA encoding del-4 instead of the del-4 expression vector as a control.
The cells were stimulated with human recombinant HGF (CALBIOCHEM), and cell lysate was prepared according to conventional method immediately after the stimulation to evaluate the activation level of MAP kinase (also referred to as Erk).
The cell lysate was separated by SDS-PAGE, and then subjected to Western blotting according to conventional method using anti-phosphorylated MAP kinase polyclonal antibody (Phospho-p44/42 MAP kinase (Thr202/Thr204) antibody; Cell Signaling Technology) to determine the MAP kinase activation level based on the obtained signal intensity.

binding activity to the HGF receptor c-Met β chain [1]	suppression of MERMUC self-association (MERMUC self-association [2])	Molecule	suppression of MERMUC self-association, dose dependence (MERMUC self-association [3])	decrease in the binding of MERMUC and HGF receptor c-Met ([4]; compared among del-1 to del-4, FIG. 17)	suppression of the binding of MERMUC and HGF receptor c-Met, dose dependence ([4]; various concentrations of del-4, FIG. 18)	phosphorylated MAP kinase level after HGF stimulation (MAP kinase (Erk))
possessed the binding activity		C260: MERMUC bait protein, C-terminal 260 amino acids of cytoplasmic region; amino acids 244-503 of SEQ ID NO: 10 (protein, listed as Homo sapiens) VKASSTSDPPALPDSTEAKPHITEVTASAETLSTAGTTESAAPHATVGTPLPTNSATEREVTAPGATTLSGALVTVSRNPLEETSALSVETPSYVKVSGAAPVSIEAGSAVGKTTSFAGSSASSYSPSEAALKNFTPSETPTMDIATKGPFPTSRDPLPSVPPTTTNSSRGTNSTLAKITTSAKTTMKPPTATPTTARTRPTTDVSAGENGGFLLLRLSVASPEDLTDPRVAERLMQQLHRELHAHAPHFQVSLLRVRRG				
completely lost the binding activity		C260AC53: MERMUC bait protein, 53 amino acids deleted from the C-terminus of C260; amino acids 244-450 of SEQ ID NO: 10 (protein, listed as Homo sapiens) VKASSTSDPPALPDSTEAKPHITEVTASAETLSTAGTTESAAPHATVGTPLPTNSATEREVTAPGATTLSGALVTVSRNPLEETSALSVETPSYVKVSGAAPVSIEAGSAVGKTTSFAGSSASSYSPSEAALKNFTPSETPTMDIATKGPFPTSRDPLPSVPPTTTNSSRGTNSTLAKITTSAKTTMKPPTATPTTARTRPTTDVSA				
	strongest suppression	del-4: MERMUC cytoplasmic region peptide, amino acids 244 to 450 of SEQ ID NO: 10 (protein, listed as Homo sapiens) VKASSTSDPPALPDSTEAKPHITEVTASAETLSTAGTTESAAPHATVGTPLPTNSATEREVTAPGATTLSGALVTVSRNPLEETSALSVETPSYVKVSGAAPVSIEAGSAVGKTTSFAGSSASSYSPSEAALKNFTPSETPTMDIATKGPFPTSRDPLPSVPPTTTNSSRGTNSTLAKITTSAKTTMKPPTATPTTARTRPTTDVSA	increased in del-4 dosage-dependent manner	greatest decrease	increased in del-4 dosage-dependent manner	a significant level of phosphorylated MAP kinase was observed
